These are literature values, as cited in patent US20030003565A1, “Functional lentiviral vector from an MLV-based backbone” (priority 2000, published 2003).

The conditions of this data set: patients with septic shock, constant infusion for three days; 44% with placebo infusions.

B1: IL-1R: recombinant IL-1R given as constant infusion to patients with septic shock (protein, UniProt P14778 18-336, looked up)
extracellular domain: LEADKCKEREEKIILVSSANEIDVRPCPLNPNEHKGTITWYKDDSKTPVSTEQASRIHQHKEKLWFVPAKVEDSGHYYCVVRNSSYCLRIKISAKFVENEPNLCYNAQAIFKQKLPVAGDGGLVCPYMEFFKNENNELPKLQWYKDCKPLLLDNIHFSGVKDRLIVMNVAEKHRGNYTCHASYTYLGKQYPITRVIEFITLEENKPTRPVIVSPANETMEVDLGSQIQLICNVTGQLSDIAYWKWNGSVIDEDDPVLGEDYYSVENPANKRRSTLITVLNISEIESRFYKHPFTCFAKNTHGIDAAYIQLIYPVTNFQK
modifications: extracellular domain
As to B1, the 28 day mortality is listed as 16%.
